In PMC3668751, “Assembly of the Yeast Exoribonuclease Rrp6 with Its Associated Cofactor Rrp47 Occurs in the Nucleus and Is Critical for the Controlled Expression of Rrp47*” (The Journal of Biological Chemistry, 2013):

B1: Recombinant full-length His6-Rrp47 (natural protein, S. cerevisiae, UniProt P38801 1-184, looked up)
chain: MEDIEKIKPYVRSFSKALDELKPEIEKLTSKSLDEQLLLLSDERAKLELINRYAYVLSSLMFANMKVLGVKDMSPILGELKRVKSYMDKAKQYDNRITKSNEKSQAEQEKAKNIISNVLDGNKNQFEPSISRSNFQGKHTKFENDELAESTTTKIIDSTDHIRKASSKKSKRLDKVGKKKGGKK
notes: Rrp47 (also known as Lrp1), S. cerevisiae, full-length recombinant protein; On its own a non-globular homodimer (theoretical homodimer mass 50,920 Da with the tag); One copy stands in the heterodimer with Rrp6NT; also called His-Rrp47; Lrp1; source: for the complex, co-lysed with cells expressing Rrp6NT

How the values were obtained:
[1] = target: the molecule itself; experiment: AUC; sedimentation velocity, 38,000 rpm, 20 °C, 50 mM Hepes pH 7.6, 500 mM NaCl, 0.25 and 1 mg/ml, absorbance at 280 nm, SEDFIT
[2] = target: B1; experiment: pull-down + SEC; E. coli cells expressing His6-Rrp47 or GST-Rrp6NT lysed together; Ni-NTA, then glutathione-Sepharose, then Superdex 200; 50 mM HEPES pH 7.6, 300 mM NaCl; ratio from densitometry of the Coomassie-stained SDS-PAGE of the peak fraction
[3] = target: the molecule itself; experiment: cross-linking; 0.01% glutaraldehyde on ice, ~40 µM protein, 50 mM HEPES pH 7.6, 300 mM NaCl; SDS-PAGE and Western blot

B1
stoichiometry N [1]: 2

B2: GST-Rrp6NT (domain or fragment, S. cerevisiae, UniProt Q12149 1-211, looked up)
chain: MTSENPDVLLSRVINVVRAASSLASQDVDFYKNLDRGFSKDLKSKADKLADMANEIILSIDEHHESFELKEEDISDLWNNFGNIMDNLLEMSDHSLDKLNCAINSKSRGSDLQYLGEFSGKNFSPTKRVEKPQLKFKSPIDNSESHPFIPLLKEKPNALKPLSESLRLVDDDENNPSHYPHPYEYEIDHQEYSPEILQIREEIPSKSWDDS
notes: Rrp6, S. cerevisiae, N-terminal region (Rrp6NT, holds the PMC2NT domain); The preparation held some proteolytic fragments of the GST fusion; also called Rrp6NT domain; N-terminal region of Rrp6; source: E. coli, co-lysed with cells expressing His6-Rrp47; complex purified (Ni-NTA, glutathione-Sepharose, Superdex 200)
stoichiometry N [2]: 0.8 Rrp6NT per Rrp47

B3: C-terminally truncated Rrp47NT protein (domain or fragment, S. cerevisiae, UniProt P38801 1-120, looked up)
chain: MEDIEKIKPYVRSFSKALDELKPEIEKLTSKSLDEQLLLLSDERAKLELINRYAYVLSSLMFANMKVLGVKDMSPILGELKRVKSYMDKAKQYDNRITKSNEKSQAEQEKAKNIISNVLD
notes: Rrp47 (Lrp1), S. cerevisiae, N-terminal domain; the discussion gives it as the first 120 amino acid residues; it probably carries a His tag like the full-length protein; also called N-terminal domain of Rrp47; Rrp47NT polypeptide
stoichiometry N [3]: 2
